# Literature values as cited in patent publication US20250304696A1, “METHODS AND COMPOSITIONS FOR TREATING BARTH SYNDROME” (PROVENTION BIO, INC., priority 2021, published 2025).
# B1: inebilizumab (antibody, chains of the INN, looked up, V domains shown)
# VH: EVQLVESGGGLVQPGGSLRLSCAASGFTFSSSWMNWVRQAPGKGLEWVGRIYPGDGDTNYNVKFKGRFTISRDDSKNSLYLQMNSLKTEDTAVYYCARSGFITTVRDFDYWGQGTLVTVSS
# VL: EIVLTQSPDFQSVTPKEKVTITCRASESVDTFGISFMNWFQQKPDQSPKLLIHEASNQGSGVPSRFSGSGSGTDFTLTINSLEAEDAATYYCQQSKEVPFTFGGGTKVEIK
# notes: cell depleting agent
# Tested on: depleted cell types (B cells)
# Settings: patients receiving depleting agents
row,Molecule,time to recover the depleted cell types
1,ocrelizumab,up to a year
2,rituximab,up to a year
3,B1,up to a year
